Sequences and labels used below:
T1: human C1s (human, UniProt P09871 16-688)
T1 construct: Analyte in the Biacore assays; also called hC1s; serum-derived human C1s (CompTech)
T1 sequence: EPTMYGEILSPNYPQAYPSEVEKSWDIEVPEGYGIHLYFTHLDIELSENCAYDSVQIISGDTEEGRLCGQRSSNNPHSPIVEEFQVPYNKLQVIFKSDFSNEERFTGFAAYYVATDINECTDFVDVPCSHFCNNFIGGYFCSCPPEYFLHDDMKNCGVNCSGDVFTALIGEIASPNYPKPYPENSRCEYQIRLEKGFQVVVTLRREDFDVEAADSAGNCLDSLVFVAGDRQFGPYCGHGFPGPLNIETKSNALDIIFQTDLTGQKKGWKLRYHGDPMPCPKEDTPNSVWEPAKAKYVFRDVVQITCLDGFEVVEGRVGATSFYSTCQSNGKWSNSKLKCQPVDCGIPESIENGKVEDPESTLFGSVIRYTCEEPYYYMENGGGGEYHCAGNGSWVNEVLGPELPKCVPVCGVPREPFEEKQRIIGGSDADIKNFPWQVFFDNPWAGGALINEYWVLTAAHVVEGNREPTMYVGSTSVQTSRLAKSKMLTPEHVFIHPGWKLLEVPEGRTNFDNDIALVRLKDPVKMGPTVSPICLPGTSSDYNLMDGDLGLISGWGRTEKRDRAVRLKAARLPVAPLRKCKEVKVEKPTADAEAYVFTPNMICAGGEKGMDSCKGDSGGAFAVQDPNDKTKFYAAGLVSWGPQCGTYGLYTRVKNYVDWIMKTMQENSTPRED

T2: Serum-derived human C1s (human, UniProt P09871 16-688)
T2 construct: The analyte was C1s purified from serum; also called hC1s
T2 sequence: T1 sequence

B1: IPN009VH2/IPN009VK3-SG136 (antibody, human IgG1, kappa)
heavy: EVMLVESGGGLVKPGGSLRLSCAASGFTFSNYAMSWVRQAPGKGLEWVATISSGGSHTYYLDSVKGRFTISRDNSKDTLYLQMNSLRAEDTALYYCARLFTGYAMDYWGQGTLVTVSSASTKGPSVFPLAPSSKSTSGGTAALGCLVKDYFPEPVTVSWNSGALTSGVHTFPAVLQSSGLYSLSSVVTVPSSSLGTQTYICNVNHKPSNTKVDKKVEPKSCDKTHTCPPCPAPELRRGPSVFLFPPKPKDTLMISRTPEVTCVVVDVSHEDPEVKFNWYVDGVEVHNAKTKPREEQYNSTYRVVSVLTVLHQDWLNGKEYKCKVSNKGLPSSIEKTISKAKGQPREPQVYTLPPSREEMTKNQVSLTCLVKGFYPSDIAVEWESNGQPENNYKTTPPVLDSDGSFFLYSKLTVDKSRWQQGNVFSCSVMHEALHNHYTQKSLSLSP
light: QIVLTQSPATLSLSPGERATLSCTASSSVSSSYLHWYQQKPGKAPKLWIYSTSNLASGVPSRFSGSGSGTDYTLTISSLQPEDFATYYCHQYYRLPPITFGQGTKLEIKRTVAAPSVFIFPPSDEQLKSGTASVVCLLNNFYPREAKVQWKVDNALQSGNSQESVTEQDSKDCTYSLSSTLTLSKADYEKHKVYACEVTHQGLSSPVTKSFNRGEC
notes: also called IPN009VH2/IPN009VK3 (lot PPU2040)
B2: IPN92H0033/IPN009VK3-SG136 (antibody, human IgG1, kappa)
heavy: B1 heavy with Y103H
light: B1 light
notes: also called IPN92H0033/IPN009VK3 (lot PPU2041)
B3: IPN009VH2/IPN93L0024-SG136 (antibody, human IgG1, kappa)
heavy: B1 heavy
light: B1 light with P96H
notes: also called IPN009VH2/IPN93L0024 (lot PPU2044)
B4: IPN009VH2/IPN93L0021-SG136 (antibody, human IgG1, kappa, name in Kabat numbering)
heavy: B1 heavy
light: B1 light with Y93H
notes: also called IPN009VH2/IPN93L0021 (lot PPU2042)
B5: IPN009VH2/IPN009VK3-SG136 (antibody, human IgG1, kappa)
heavy: B1 heavy
light: B1 light
notes: also called parent antibody
B6: IPN92H0033/IPN009VK3-SG136 (antibody, human IgG1, kappa)
heavy: B1 heavy with Y103H
light: B1 light
notes: VH is IPN009VH2 with Y99H (Kabat)
B7: IPN92H0038/IPN93L0024-SG136 (antibody, human IgG1, kappa, name in Kabat numbering)
heavy: B1 heavy with G66H, Y103H
light: B1 light with P96H
notes: Substitutions are numbered by Kabat
B8: IPN009VH2/IPN93L0021-SG136 (antibody, human IgG1, kappa, name in Kabat numbering)
heavy: B1 heavy
light: B1 light with Y93H
notes: The substitution is numbered by Kabat
B9: IPN92H0281/IPN93L0024-SG136 (antibody, human IgG1, kappa, name in Kabat numbering)
heavy: B1 heavy with H57K, Y60E, K65D, G66E, G102K, Y103H
light: B1 light with P96H
notes: as for B7
B10: IPN009VH2/IPN93L0024-SG136 (antibody, human IgG1, kappa)
heavy: B1 heavy
light: B1 light with P96H
notes: VL is IPN009VK3 with P95H (Kabat)
B11: IPN92H0288/IPN93L0211-SG136 (antibody, human IgG1, kappa)
heavy: B1 heavy with Y60E, K65D, G102K, Y103H
light: B1 light with S28E, S31E, P96H
B12: IPN92H0288/IPN93L0058-SG136 (antibody, human IgG1, kappa)
heavy: B1 heavy with Y60E, K65D, G102K, Y103H
light: B1 light with S28E, P96H
B13: IPN009VH2/IPN93L0023-SG136 (antibody, human IgG1, kappa, name in Kabat numbering)
heavy: B1 heavy
light: B1 light with L95H
notes: also called IPN00VH2/IPN93L0023-SG136
B14: IPN92H0033/IPN93L0024-SG136 (antibody, human IgG1, kappa)
heavy: B1 heavy with Y103H
light: B1 light with P96H
B15: IPN92H0307/IPN93L0058-SG136 (antibody, human IgG1, kappa)
heavy: B1 heavy with T28E, S30E, Y60E, K65D, G102K, Y103H
light: B1 light with S28E, P96H

By koff is commonly meant the rate constant with which the complex falls apart. Lower therefore signals a long-lived complex. Usually kon stands for the second-order rate constant of association. A lower kon goes with slow association. As a reminder, the Kd is the free concentration of one partner at which half of the binding sites on the other are occupied at equilibrium, for simple one-to-one binding. Read a low Kd as a tighter complex.

Substitutions are numbered along the chain they refer to. Names may count otherwise.

One assay addresses T1, human C1s. The experiment in a line: SPR; koff (5.8+ of 775+): extra dissociation phase at pH 5.8 (1.2 mM Ca) right after the pH 7.4 dissociation, Scrubber fit. How it is done: (§1) The binding affinity of all histidine-substituted variants at pH 7.4 and pH 5.8 were determined at 37 degrees C. using Biacore T200 instrument (GE Healthcare). Recombinant Protein A/G (Pierce) was immobilized onto all flow cells of a CM4 sensor chip using amine coupling kit (GE Healthcare). Antibodies and analytes were prepared in 7(+) buffer (20 mM ACES, 150 mM NaCl, 1.2 mM CaCl2, 0.05% Tween 20, 0.005% NaN3, pH 7.4) or 5(+) buffer (20 mM ACES, 150 mM NaCl, 1.2 mM CaCl2), 0.05% Tween 20, 0.005% NaN3, pH 5.8). Each antibody was captured onto the sensor surface by protein A/G. Antibody capture levels were aimed at 200 resonance unit (RU). […] Sensor surface was regenerated each cycle with 10 mM Glycine-HCl pH 1.5. […] An additional dissociation phase at pH 5.8 was integrated immediately after the dissociation phase at pH 7.4. This dissociation rate in 5(+) buffer was determined by processing and fitting data using Scrubber 2.0 (BioLogic Software) curve fitting software.
(In general: SPR reads the build-up and loss of mass on a sensor chip optically.)
As for B1, the koff was determined as 8.86e-05 s⁻¹.

Take B2: the koff worked out at 0.000265 s⁻¹.

The molecule B3 displayed a koff of 0.000741 s⁻¹.

As to B4, the koff was 0.0011 s⁻¹.

The next assay concerns the target T2, Serum-derived human C1s. The experiment in a line: SPR Biacore T200, 37 C, antibody captured on protein A/G, pH 5.8, 1.2 mM CaCl2. How it is done:
as §1
With B5, the koff worked out at 0.000162 s⁻¹ and the kon came out at 360000 M⁻¹ s⁻¹.

B6 registered a koff of 0.000362 s⁻¹ and a kon of 389000 M⁻¹ s⁻¹.

Consider B7, for which the Kd is 10.7 nM, the koff was determined as 0.00309 s⁻¹ and the kon amounted to 289000 M⁻¹ s⁻¹.

B8 had an off-rate constant (koff) of 0.00126 s⁻¹ and a kon of 290000 M⁻¹ s⁻¹.

Molecule B9 returned a Kd of 123 nM, a koff of 0.0267 s⁻¹ and a kon of 217000 M⁻¹ s⁻¹.

B10 came in with a koff of 0.000956 s⁻¹ and a kon of 221000 M⁻¹ s⁻¹.

The molecule B11 came in with a koff of 0.0194 s⁻¹ and a kon of 233000 M⁻¹ s⁻¹.

In turn, B12 returned a koff of 0.0127 s⁻¹ and a kon of 315000 M⁻¹ s⁻¹.

In turn, B13 had a Kd of 2.48 nM, a koff of 0.000818 s⁻¹ and a kon of 330000 M⁻¹ s⁻¹.

B14 had a koff of 0.0031 s⁻¹ and a kon of 261000 M⁻¹ s⁻¹.

In the case of B15, the koff is 0.0121 s⁻¹ and the kon is 318000 M⁻¹ s⁻¹.

Another assay addresses T1, human C1s. In words: SPR (Biacore T200, 37C), Ab captured on protein A/G, serum C1s 12.5 and 50 nM; pH 7.4, 1.2 mM Ca. How it is done:
as §1
Molecule B1 returned a koff of 0.000411 s⁻¹.

Take B2: the koff was 0.00038 s⁻¹.

For the molecule B3, the koff was 0.000612 s⁻¹.

In turn, B4 gave a koff of 0.00058 s⁻¹.

The next assay concerns the target T2, Serum-derived human C1s. The experiment in a line: SPR Biacore T200, 37 C, antibody captured on protein A/G, pH 7.4, 1.2 mM CaCl2. As for the experimental part:
as §1
Molecule B5 displayed a kon of 344000 M⁻¹ s⁻¹.

The molecule B6 showed a kon of 377000 M⁻¹ s⁻¹.

On to B7, for which binding was put at a Kd of 1.2 nM and the kon came out at 384000 M⁻¹ s⁻¹.

The molecule B8 showed a kon of 199000 M⁻¹ s⁻¹.

The molecule B9 showed a Kd of 2.02 nM and a kon of 319000 M⁻¹ s⁻¹.

Take B10: the on-rate constant (kon) was 180000 M⁻¹ s⁻¹.

In turn, B11 showed an association rate constant (kon) of 469000 M⁻¹ s⁻¹.

Regarding B12, the kon was found to be 666000 M⁻¹ s⁻¹.

B13 yielded a Kd of 2.77 nM and a kon of 227000 M⁻¹ s⁻¹.

In the case of B14, the kon worked out at 227000 M⁻¹ s⁻¹.

On to B15, for which the kon was determined as 391000 M⁻¹ s⁻¹.

Another assay deals with T2, Serum-derived human C1s. In words: SPR Biacore T200, 37 C, ratio of KD pH 5.8 / pH 7.4, 1.2 mM CaCl2. How it is done: as §1, with “software. […]” for “software.”
Regarding B5, the “KD (5.8+)/KD (7.4+)” value worked out at 0.4.

As to B6, the “KD (5.8+)/KD (7.4+)” value came out at 0.9.

For B7, the “KD (5.8+)/KD (7.4+)” value was 8.9.

Consider B8, for which the “KD (5.8+)/KD (7.4+)” value is 1.5.

Turning to B9, the “KD (5.8+)/KD (7.4+)” value was found to be 60.9.

In the case of B10, the “KD (5.8+)/KD (7.4+)” value turned out to be 1.3.

Take B11: the “KD (5.8+)/KD (7.4+)” value was found to be 74.9.

For the molecule B12, the “KD (5.8+)/KD (7.4+)” value was 65.6.

As for B13, the “KD (5.8+)/KD (7.4+)” value was determined as 0.9.

Turning to B14, the “KD (5.8+)/KD (7.4+)” value was determined as 4.7.

As to B15, the “KD (5.8+)/KD (7.4+)” value was 28.4.

In a further assay the target is T1, human C1s. The experiment in a line: SPR; KD at pH 5.8 over KD at pH 7.4, both 1.2 mM Ca. As for the experimental part:
as §1, with “software. […]” for “software.”
For B1, the “KD (5.8+)/KD (7.4+)” value turned out to be 0.4.

Take B2: the “KD (5.8+)/KD (7.4+)” value was found to be 0.9.

Take B3: the “KD (5.8+)/KD (7.4+)” value came out at 1.3.

Regarding B4, the “KD (5.8+)/KD (7.4+)” value turned out to be 1.5.

Another assay addresses T2, Serum-derived human C1s. In words: SPR Biacore T200, 37 C, ratio of dissociation rates pH 5.8 / pH 7.4, 1.2 mM CaCl2. As for the experimental part: as §1
On to B5, for which the “koff (5.8+ of 775+)/koff (7.4+)” value came to 0.2.

In the case of B6, the “koff (5.8+ of 775+)/koff (7.4+)” value was 0.7.

Regarding B7, the “koff (5.8+ of 775+)/koff (7.4+)” value came to 7.7.

With B8, the “koff (5.8+ of 775+)/koff (7.4+)” value stood at 1.9.

Take B9: the “koff (5.8+ of 775+)/koff (7.4+)” value came out at 38.2.

On to B10, for which the “koff (5.8+ of 775+)/koff (7.4+)” value worked out at 1.2.

For the molecule B11, the “koff (5.8+ of 775+)/koff (7.4+)” value worked out at 54.2.

In the case of B12, the “koff (5.8+ of 775+)/koff (7.4+)” value is 38.8.

For the molecule B13, the “koff (5.8+ of 775+)/koff (7.4+)” value turned out to be 1.1.

As to B14, the “koff (5.8+ of 775+)/koff (7.4+)” value was found to be 5.1.

For the molecule B15, the “koff (5.8+ of 775+)/koff (7.4+)” value was determined as 28.8.

The values are drawn from patent US20210032365A1 (Chugai, published 2021).
